{"source": "paper PMC2680549", "about": "(Nature structural & molecular biology, 2008)", "key": {"[1]": {"molecular_target": "Hsc70 nucleotide binding domain (human Hsc70 1-381) (human, UniProt P11142 1-381)", "sequence (P11142 1-381)": "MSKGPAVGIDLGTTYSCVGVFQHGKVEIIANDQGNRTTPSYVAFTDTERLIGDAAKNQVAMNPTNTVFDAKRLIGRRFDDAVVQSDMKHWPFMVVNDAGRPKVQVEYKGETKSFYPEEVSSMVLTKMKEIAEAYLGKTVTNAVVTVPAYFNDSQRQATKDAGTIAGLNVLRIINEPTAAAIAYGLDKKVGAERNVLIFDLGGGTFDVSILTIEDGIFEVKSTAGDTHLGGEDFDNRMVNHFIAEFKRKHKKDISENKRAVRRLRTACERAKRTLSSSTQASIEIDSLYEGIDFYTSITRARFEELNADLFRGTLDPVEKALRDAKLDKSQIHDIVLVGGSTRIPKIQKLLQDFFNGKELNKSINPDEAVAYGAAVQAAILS", "experiment": "pull-down"}, "AUC [2]": {"molecular_target": "the molecule itself", "experiment": "AUC"}, "AUC [3]": {"molecular_target": "the molecule itself", "experiment": "AUC", "remark": "listed apart in the source"}}}
{"binder": "GST-fused full-length human Bag2, wild type (natural protein, UniProt O95816 1-211, looked up) MAQAKINAKANEGRFCRSSSMADRSSRLLESLDQLELRVEALREAATAVEQEKEILLEMIHSIQNSQDMRQISDGEREELNLTANRLMGRTLTVEVSVETIRNPQQQESLKHATRIIDEVVNKFLDDLGNAKSHLMSLYSACSSEVPHGPVDQKFQSIVIGCALEDQKKIKRRLETLLRNIENSDKAIKLLEHSKGAGSKTLQQNAESRFN", "values": [{"measurement": "binding result", "setting": "[1]", "value": "binds"}]}
{"binder": "Mouse Bag2-BNB (murine Bag2 107-189) (domain or fragment, UniProt Q91YN9 107-189, looked up) EESLKHATRIIDEVVSKFLDDLGNAKSHLMSLYSACSSEVPPGPVDQKFQSIVIGCALEDQKKIKRRLETLLRNIDNSDKAIK", "values": [{"measurement": "Kd", "setting": "AUC [2]", "value": "4.5 ± 2", "unit": "µM"}]}
{"binder": "Near full-length murine Bag2 (Bag2 21-210) (domain or fragment, mouse, UniProt Q91YN9 21-210, looked up) MADRSSRLLESLDQLELRVEALRDAATAVEQEKEILLEMIHSIQNSQDMRQISDGEREELNLTANRLMGRTLTVEVSVETIRNPQQEESLKHATRIIDEVVSKFLDDLGNAKSHLMSLYSACSSEVPPGPVDQKFQSIVIGCALEDQKKIKRRLETLLRNIDNSDKAIKLLEHAKGAGSKSLQNTDGKFN", "values": [{"measurement": "stoichiometry N", "setting": "AUC [3]", "value": "≥ 4"}]}
